Sequences and labels used below:
B1: S100A14 (parent)
chain: KIANLGSCNDSKLEFRSFWELIGE
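Note: lentivirally expressed fusions sorted by FACS into six bins by GFP to DsRed ratio, PSI derived from sequencing read proportions per bin multiplied by bin number.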

This data set covers variants of B1. The experiment in a line: protein stability index of a GFP-peptide fusion (GPS, HEK-293T) (PSI 1-6); higher = more stable. As to conditions: c terminus: a fixed tail appended.
Consider KIANLGSCNDIKLEFRSFWELIGE [S11I], for which the protein stability index stood at 1.75.

As to KIANLGSCNDTKLEFRSFWELIGE [S11T], the protein stability index is 1.56.

On to KIANLGSCNDYKLEFRSFWELIGE [S11Y], for which the protein stability index is 1.59.

Turning to KIANLGSCNDGKLEFRSFWELIGE [S11G], the protein stability index is 1.53.

KIANLGSCNDVKLEFRSFWELIGE [S11V]: the protein stability index was 2.42.

As for KIANLGSCNDNKLEFRSFWELIGE [S11N], the protein stability index was 2.21.

As for KIANLGSCNDHKLEFRSFWELIGE [S11H], the protein stability index was 1.62.

As for KIANLGSCNDAKLEFRSFWELIGE [S11A], the protein stability index is 2.38.

In the case of KIANLGSCNDQKLEFRSFWELIGE [S11Q], the protein stability index amounted to 2.08.

KIANLGSCNDCKLEFRSFWELIGE [S11C]: the protein stability index amounted to 2.62.

Turning to KIANLGSCNDFKLEFRSFWELIGE [S11F], the protein stability index worked out at 2.39.

Regarding KIANLGSCNDDKLEFRSFWELIGE [S11D], the protein stability index worked out at 1.89.

Consider KIANLGSCNDKKLEFRSFWELIGE [S11K], for which the protein stability index turned out to be 1.69.

Consider KIANLGSCNDPKLEFRSFWELIGE [S11P], for which the protein stability index worked out at 2.81.

In the case of KIANLGSCNDMKLEFRSFWELIGE [S11M], the protein stability index was found to be 1.4.

KIANLGSCNDRKLEFRSFWELIGE [S11R]: the protein stability index amounted to 2.

As to KIANLGSCNDWKLEFRSFWELIGE [S11W], the protein stability index came out at 1.18.

With KIANLGSCNDEKLEFRSFWELIGE [S11E], the protein stability index is 1.68.

Take KIANLGSCNDLKLEFRSFWELIGE [S11L]: the protein stability index was determined as 1.52.

Regarding KIANLGSCNRSKLEFRSFWELIGE [D10R], the protein stability index is 1.74.

As to KIANLGSCNPSKLEFRSFWELIGE [D10P], the protein stability index is 1.64.

Take KIANLGSCNNSKLEFRSFWELIGE [D10N]: the protein stability index turned out to be 2.39.

Regarding KIANLGSCNYSKLEFRSFWELIGE [D10Y], the protein stability index is 1.63.

For KIANLGSCNTSKLEFRSFWELIGE [D10T], the protein stability index is 1.95.

For KIANLGSCNSSKLEFRSFWELIGE [D10S], the protein stability index is 2.4.

For the variant KIANLGSCNQSKLEFRSFWELIGE [D10Q], the protein stability index worked out at 1.7.

Take KIANLGSCNWSKLEFRSFWELIGE [D10W]: the protein stability index came to 3.28.

As to KIANLGSCNVSKLEFRSFWELIGE [D10V], the protein stability index amounted to 2.32.

With KIANLGSCNDSKLVFRSFWELIGE [E14V], the protein stability index was 1.6.

As for KIANLGSCNDSKLSFRSFWELIGE [E14S], the protein stability index turned out to be 1.8.

As for KIANLGSCNDSKLQFRSFWELIGE [E14Q], the protein stability index was found to be 2.06.

In the case of KIANLGSCNDSKLMFRSFWELIGE [E14M], the protein stability index was 2.13.

Take KIANLGSCNDSKLCFRSFWELIGE [E14C]: the protein stability index came to 1.48.

Take KIANLGSCNDSKLFFRSFWELIGE [E14F]: the protein stability index worked out at 1.89.

As for KIANLGSCNDSKLKFRSFWELIGE [E14K], the protein stability index turned out to be 1.47.

In the case of KIANLGSCNDSKLRFRSFWELIGE [E14R], the protein stability index was 2.7.

In the case of KIANLGSCNDSKLLFRSFWELIGE [E14L], the protein stability index was found to be 2.08.

With KIANLGSCNDSKLHFRSFWELIGE [E14H], the protein stability index is 1.71.

As to KIANLGSCNDSKLTFRSFWELIGE [E14T], the protein stability index turned out to be 1.43.

Consider KIANLGSCNDSKLAFRSFWELIGE [E14A], for which the protein stability index stood at 1.81.

Turning to KIANLGSCNDSKLYFRSFWELIGE [E14Y], the protein stability index came to 2.01.

KIANLGSCNDSKLDFRSFWELIGE [E14D]: the protein stability index turned out to be 1.89.

Take KIANLGSCNDSKLPFRSFWELIGE [E14P]: the protein stability index stood at 1.61.

With KIANLGSCNDSKLWFRSFWELIGE [E14W], the protein stability index was found to be 1.08.

Take KIANLGSCNDSKLGFRSFWELIGE [E14G]: the protein stability index was found to be 1.57.

KIANLGSCNDSKLIFRSFWELIGE [E14I]: the protein stability index was found to be 2.54.

As for KIANLGSCNDSKLNFRSFWELIGE [E14N], the protein stability index amounted to 1.54.

Take KIANLGSCNDSKLEFRSRWELIGE [F18R]: the protein stability index was 2.5.

For the variant KIANLGSCNDSKLEFRSWWELIGE [F18W], the protein stability index was determined as 2.16.

For KIANLGSCNDSKLEFRSDWELIGE [F18D], the protein stability index came to 3.52.

With KIANLGSCNDSKLEFRSYWELIGE [F18Y], the protein stability index amounted to 1.97.

For KIANLGSCNDSKLEFRSVWELIGE [F18V], the protein stability index was determined as 1.52.

Take KIANLGSCNDSKLEFRSSWELIGE [F18S]: the protein stability index worked out at 2.08.

KIANLGSCNDSKLEFRSPWELIGE [F18P]: the protein stability index was 2.27.

Consider KIANLGSCNDSKLEFRSCWELIGE [F18C], for which the protein stability index came out at 2.11.

For the variant KIANLGSCNDSKLEFRSKWELIGE [F18K], the protein stability index was found to be 2.07.

For the variant KIANLGSCNDSKLEFRSLWELIGE [F18L], the protein stability index was determined as 2.57.

For KIANLGSCNDSKLEFRSQWELIGE [F18Q], the protein stability index was determined as 1.98.

In the case of KIANLGSCNDSKLEFRSEWELIGE [F18E], the protein stability index came out at 2.66.

With KIANLGSCNDSKLEFRSNWELIGE [F18N], the protein stability index turned out to be 2.73.

Take KIANLGSCNDSKLEFRSIWELIGE [F18I]: the protein stability index turned out to be 1.85.

For KIANLGSCNDSKLEFRSAWELIGE [F18A], the protein stability index amounted to 2.2.

Regarding KIANLGSCNDSKLEFRSGWELIGE [F18G], the protein stability index worked out at 2.43.

On to KIANLGSCNDSKLEFRSMWELIGE [F18M], for which the protein stability index is 1.63.

On to KIANLGSCNDSKLEFRSHWELIGE [F18H], for which the protein stability index is 2.82.

As for KIANLGSCNDSKLEFRSTWELIGE [F18T], the protein stability index was 1.89.

In the case of KIANLGSCNDSKLEFCSFWELIGE [R16C], the protein stability index is 1.66.

On to KIANLGSCNDSKLEFSSFWELIGE [R16S], for which the protein stability index came out at 2.65.

With KIANLGSCNDSKLEFKSFWELIGE [R16K], the protein stability index was 1.36.

As to KIANLGSCNDSKLEFESFWELIGE [R16E], the protein stability index was 1.92.

Turning to KIANLGSCNDSKLEFMSFWELIGE [R16M], the protein stability index came out at 1.78.

As to KIANLGSCNDSKLEFISFWELIGE [R16I], the protein stability index came to 1.97.

Turning to KIANLGSCNDSKLEFLSFWELIGE [R16L], the protein stability index turned out to be 3.03.

In the case of KIANLGSCNDSKLEFPSFWELIGE [R16P], the protein stability index was determined as 2.28.

On to KIANLGSCNDSKLEFDSFWELIGE [R16D], for which the protein stability index is 2.11.

KIANLGSCNDSKLEFWSFWELIGE [R16W]: the protein stability index is 2.25.

As for KIANLGSCNDSKLEFHSFWELIGE [R16H], the protein stability index amounted to 2.77.

With KIANLGSCNDSKLEFGSFWELIGE [R16G], the protein stability index is 1.54.

As for KIANLGSCNDSKLEFYSFWELIGE [R16Y], the protein stability index was determined as 2.44.

Take KIANLGSCNDSKLEFQSFWELIGE [R16Q]: the protein stability index turned out to be 1.98.

Take KIANLGSCNDSKLEFTSFWELIGE [R16T]: the protein stability index amounted to 1.61.

As to KIANLGSCNDSKLEFFSFWELIGE [R16F], the protein stability index was 1.42.

Turning to KIANLGSCNDSKLEFVSFWELIGE [R16V], the protein stability index came out at 2.3.

On to KIANLGSCNDSKLEFNSFWELIGE [R16N], for which the protein stability index was 2.13.

Turning to KIANLGSCNDSKLEFASFWELIGE [R16A], the protein stability index came out at 1.28.

Turning to KIANLGSCNDSKYEFRSFWELIGE [L13Y], the protein stability index worked out at 2.12.

Turning to KIANLGSCNDSKWEFRSFWELIGE [L13W], the protein stability index is 2.31.

As for KIANLGSCNDSKFEFRSFWELIGE [L13F], the protein stability index is 2.21.

On to KIANLGSCNDSKEEFRSFWELIGE [L13E], for which the protein stability index amounted to 1.71.

Regarding KIANLGSCNDSKMEFRSFWELIGE [L13M], the protein stability index came to 2.03.

In the case of KIANLGSCNDSKHEFRSFWELIGE [L13H], the protein stability index is 2.12.

On to KIANLGSCNDSKQEFRSFWELIGE [L13Q], for which the protein stability index is 1.92.

Turning to KIANLGSCNDSKVEFRSFWELIGE [L13V], the protein stability index turned out to be 1.83.

As for KIANLGSCNDSKAEFRSFWELIGE [L13A], the protein stability index is 2.17.
